# According to US20220332800A1 (Takeda / Millennium, published 2022):
# Numbering of substitutions follows the chain as printed.
# B1: anti-ZIKV antibody 306-2 (antibody, V domains shown)
# VH: QSLEESGGDLVKPGASLTLTCTASGFDFSDRYYMCWVRQAPGKGLEWIGCIYVGSGDTYYASWAKGRFTISRTSSTTVTLQMTRLTAADTATYFCARHPGTYFTLWGPGTLVTVSS
# VL: DVVMTQTPSSVSAAVGGTVTINCQASQNIVNNLAWYQQRPGQPPKLLIYDTSTLASGVPSRFKGSGSGTEFTLTISDLECADAATYYCQTYYYYNKIINGFGGGTEVVVKG
# B2: anti-ZIKV antibody 289-3 (antibody, V domains shown)
# VH: QEELEESGGDLVKPGASLTLTCKASGFSFSSGAYICWVRQAPGKGPEWIACIYTGDGRTYYANWAKRRFTISSSSSTTVALEMPSLTDADTATYFCARAIAVGAGYGVGNYFTLWGPGTLVTVSS
# VL: DIVMTQTPSSVSAAVGGTVTINCHASENIYGYLSWYQQKPGQPPKLLIYKASTLASGVPSRFKGSGAGTQFTLTITALECADAATYYCQSYYTSSSNADGSENAFGGGTEVVVEG
# notes: also called clone 289-3; subclone 289-3
# B3: anti-ZIKV antibody 242-3 (antibody, V domains shown)
# VH: QAQLEESGGDLVKPEGSLTLTCTASGFSFTDRHYMCWIRQAPGKGLEWIACVYPGSSGSTYYASWARGRFTISKTSSTTVTLRMTSLTAADTATYFCARSSYPDSSGYSYGMDLWGPGTLVTVSS
# VL: DIVMTQTPASVEAAVGGTVTIKCQASQNINSNLAWYQQKPGQRPKFLMYLTSKLASGVPSRFRGSGSGTQFTLTISDLECADAATYYCQTYYDISNYGYAFGGGTEVVVK
# notes: also called clone 242-3
# B4: anti-ZIKV antibody 11-3 (antibody, V domains shown)
# VH: QEQLVESGGGLVQPEGSLTITCTGSGFSFSSRFYMCWVRQAPGKGLEWIACIYGGSSGSTYYASWAKGRFTISKTSSTTVTLQISSLTAADTATYFCARGGSTAAAGFNLWGPGTLLTVSS
# VL: DVVMTQTPASVSATVGGTVTIKCQASEDIYNLLAWYQQKPGQPPKLLIYYASTLASGVPSRFKGSGSGTEFTLTISDLECADAATYYCQCNDYGGTYVPNAFGGGTEVVVKG
# notes: also called clone 11-3
# B5: anti-ZIKV antibody 78-2 (antibody, V domains shown)
# VH: QQQLVESGGGLVKPGASLTLNCKASGLDFSTNSYMCWVRQAPGKGLEWIACIYVGDSSEIYYASWAKGRFTISKTSSTTVTLQMTSLTAADTATYFCARDLPSFTAPYAGYLRLWGPGTLVTVSS
# VL: QPVLTQPPSLSASLGTTARLTCTLRTGYNVGDYPLLWLQRVPGRPPRYLLTYHTEEFKHQGSGVHSRFSGSKDASENAGVLSISGLQPEDEANYYCYTVHATESSLHYVFGGGTQLTVTG
# notes: also called clone 78-2
# B6: anti-ZIKV antibody 270-12 (antibody, V domains shown)
# VH: B3 VH with I38V
# VL: DIVMTQTPASVEAAVGGTVTIKCQASQDINSNLAWYQQKPGQRPKFLMYLTSKLASGVPSRFRGSGSGTQFTLTISDLECADAATYYCQTYYDISNYGYAFGGGTEVVVKG
# notes: also called clone 270-12
# Target: T1, ZIKV-VLP (Native Antigen Inc.) (Zika virus)
# T1 construct: also called Zika VLP; ZVLP
# Test: ELISA, purified recombinant mAb
row,Binder,ELISA OD [OD]
1,B1,3.3
2,B2,3.21
3,B3,3.07

# Target: T1, ZIKV-VLP (Native Antigen Inc.)
# Test: indirect ELISA, subclone supernatant
row,Binder,VLP (OD) binding [OD]
1,B1,1.15
2,B2,0.94
3,B3,0.97

# Target: T1, ZIKV-VLP (Native Antigen Inc.)
# Test: ELISA, hybridoma supernatant (Abcam data)
row,Binder,OD [OD]
1,B4,2.83
2,B1,1.15
3,B5,2.67
4,B2,0.94
5,B3,0.97
6,B6,1.27

# Target: T1, ZIKV-VLP (Native Antigen Inc.)
# Test: BLI binning on ZIKV-VLP; 1st mAb (row): C10
row,Binder,response of 2nd mAb
1,B1,-0.0006
2,B2,0.0265
3,B3,0.0363
4,B6,0.0344

# Target: T1, ZIKV-VLP (Native Antigen Inc.)
# Test: BLI binning on ZIKV-VLP; 1st mAb (row): 102-1
row,Binder,response of 2nd mAb
1,B1,0.0269
2,B2,0.0047
3,B3,0.0181
4,B6,-0.004

# Target: T1, ZIKV-VLP (Native Antigen Inc.)
# Test: BLI binning on ZIKV-VLP; 1st mAb (row): 242-3
row,Binder,response of 2nd mAb
1,B1,0.019
2,B2,0.0011
3,B3,0.005
4,B6,-0.0103

# Target: T1, ZIKV-VLP (Native Antigen Inc.)
# Test: BLI binning on ZIKV-VLP; 1st mAb (row): 289-3
row,Binder,response of 2nd mAb
1,B1,0.023
2,B2,0.0128
3,B3,0.0219
4,B6,0.0261

# Target: T1, ZIKV-VLP (Native Antigen Inc.)
# Test: BLI binning on ZIKV-VLP; 1st mAb (row): 306-2
row,Binder,response of 2nd mAb
1,B1,0.0225
2,B2,0.0428
3,B3,0.0732
4,B6,0.0432

# Target: T1, ZIKV-VLP (Native Antigen Inc.)
# Test: BLI binning on ZIKV-VLP; 1st mAb (row): 270-12
row,Binder,response of 2nd mAb
1,B1,0.0125
2,B2,0.0064
3,B3,0.0325
4,B6,0.0171

# Target: T1, ZIKV-VLP (Native Antigen Inc.)
# Test: indirect ELISA, purified antibody serially diluted from 10 µg/ml
row,Binder,EC50 [µg/mL]
1,B4,0.00657
2,B5,0.0319
3,B2,0.00724
4,B6,0.0128

# Target: T1, ZIKV-VLP (Native Antigen Inc.)
# Test: BLI binning on ZIKV-VLP; 1st mAb: 4G2
row,Binder,response of 2nd mAb
1,B4,0.75
2,B1,0.64
3,B5,0.52
4,B2,1.04
5,B3,0.93
6,B6,0.91

# Target: T1, ZIKV-VLP (Native Antigen Inc.)
# Test: BLI binning on ZIKV-VLP; 1st mAb: Ab1
row,Binder,response of 2nd mAb
1,B4,0.41
2,B1,0.19
3,B5,0.38
4,B2,0.4
5,B3,0.25
6,B6,0.34

# Target: T1, ZIKV-VLP (Native Antigen Inc.)
# Test: BLI binning on ZIKV-VLP; 1st mAb: Ab2
row,Binder,response of 2nd mAb
1,B4,2.71
2,B1,4.51
3,B5,2.46
4,B2,3.79
5,B3,7.67
6,B6,3.5

# Target: T1, ZIKV-VLP (Native Antigen Inc.)
# Test: BLI binning on ZIKV-VLP; 1st mAb: C10
row,Binder,response of 2nd mAb
1,B4,3.14
2,B1,4.54
3,B5,3.41
4,B2,4.55
5,B3,5.12
6,B6,4.27

# Target: T1, ZIKV-VLP (Native Antigen Inc.)
# Test: BLI binning on ZIKV-VLP; 1st mAb: 11-3
row,Binder,response of 2nd mAb
1,B4,0.06
2,B1,0.34
3,B5,0.42
4,B2,0.52
5,B3,0.4
6,B6,0.47

# Target: T1, ZIKV-VLP (Native Antigen Inc.)
# Test: BLI binning on ZIKV-VLP; 1st mAb: 78-2
row,Binder,response of 2nd mAb
1,B4,0.23
2,B1,0.26
3,B5,0.06
4,B2,0.46
5,B3,0.18
6,B6,0.44

# Target: T1, ZIKV-VLP (Native Antigen Inc.)
# Test: BLI binning on ZIKV-VLP; 1st mAb: 102-1
row,Binder,response of 2nd mAb
1,B4,0.45
2,B1,0.07
3,B5,0.32
4,B2,0.09
5,B3,0.1
6,B6,0.07

# Target: T1, ZIKV-VLP (Native Antigen Inc.)
# Test: BLI binning on ZIKV-VLP; 1st mAb: 181-4
row,Binder,response of 2nd mAb
1,B4,0.39
2,B1,-0.02
3,B5,0.3
4,B2,0.01
5,B3,0.02
6,B6,0.01

# Target: T1, ZIKV-VLP (Native Antigen Inc.)
# Test: BLI binning on ZIKV-VLP; 1st mAb: 242-3
row,Binder,response of 2nd mAb
1,B4,0.42
2,B1,0.04
3,B5,0.33
4,B2,0.07
5,B3,0.08
6,B6,0.04

# Target: T1, ZIKV-VLP (Native Antigen Inc.)
# Test: BLI binning on ZIKV-VLP; 1st mAb: 260-2
row,Binder,response of 2nd mAb
1,B4,0.47
2,B1,0
3,B5,0.33
4,B2,0.04
5,B3,0.06
6,B6,0

# Target: T1, ZIKV-VLP (Native Antigen Inc.)
# Test: BLI binning on ZIKV-VLP; 1st mAb: 289-3
row,Binder,response of 2nd mAb
1,B4,0.42
2,B1,0.03
3,B5,0.32
4,B2,0.02
5,B3,0.04
6,B6,0.02

# Target: T1, ZIKV-VLP (Native Antigen Inc.)
# Test: BLI binning on ZIKV-VLP; 1st mAb: 306-2
row,Binder,response of 2nd mAb
1,B4,0.43
2,B1,0.01
3,B5,0.28
4,B2,0.24
5,B3,0.08
6,B6,0.31

# Target: T1, ZIKV-VLP (Native Antigen Inc.)
# Test: BLI binning on ZIKV-VLP; 1st mAb: 329-2
row,Binder,response of 2nd mAb
1,B4,0.44
2,B1,-0.03
3,B5,0.33
4,B2,-0.01
5,B3,-0.01
6,B6,0

# Target: T1, ZIKV-VLP (Native Antigen Inc.)
# Test: BLI binning on ZIKV-VLP; 1st mAb: 270-12
row,Binder,response of 2nd mAb
1,B4,0.38
2,B1,-0.01
3,B5,0.28
4,B2,0.02
5,B3,0.04
6,B6,0.02

# Target: T1, ZIKV-VLP (Native Antigen Inc.)
# Test: BLI (Octet), supernatant IgG captured on Protein A biosensor, ZIKV-VLP 3.3 µg/mL in solution, 1:1 model
row,Binder,koff [s⁻¹]
1,B4,< 1e-07
2,B1,< 1e-07
3,B5,< 1e-07
4,B2,0.000113
5,B3,< 1e-07
